Data from the RNAGym collection of RNA variant scans (doi:10.1073/pnas.2313332121).

B1: TPR t1 (parent)
chain: GACCAAUCUGCCCUCAGAGCUCGAGAACAUCUUCGGAUGCAGAGGAGGCAGGCUUCGGUGGCGCGAUAGCGCCAACGUCCUCAACCUCCAAUGCAUCCCACCACAUGAUGAUGCCUGAAGAGCCUUGGUUUUUUG

Variants of: B1
Assay: polymerase ribozyme fitness, log enrichment relative to wild type (log ratio); higher = more active; in vitro selection for triplet polymerase activity
How it was run: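 Each subunit of a heterodimeric triplet polymerase ribozyme was represented by a PCR-built, transcribed mutant library that underwent triplicate single-round in vitro selection with frozen incubation at −7 °C. Extended constructs were recovered by gel excision, streptavidin-bead capture and RT-PCR, and Illumina sequencing of input and output libraries kept genotypes with ≥10 input reads and ≥1 read per output. Fitness is the logarithm of genotype enrichment relative to wild-type enrichment, from inverse-variance-weighted replicate averages, with a logarithm base of 2.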

Variant | polymerase ribozyme fitness (log ratio)
C40A C72G A108G | -4.46
C40A C72G A119U U130C U131A | -1.75
C40A C76U | -1.15
C40A C80U C89U G117A A121G | -0.909
C40A C82A U92A C102A C124U | -4.16
C40A C82U | -1.77
C40A C86U | -1.9
C40A C89G U106G C123U | -5.55
C40A C89U | -0.912
C40A C89U G117A A121G | -0.101
C40A C102U | -3.15
C40A G42U G45U C56G C73U | -4.17
C40A G42U G77C | -2.77
C40A G44A G45U A50C G93A | -5.29
C40A G44C C72G G127A | -4.18
C40A G45A | -2.54
C40A G45U A90G | -1.17
C40A G45U G110A | -4.4
C40A G45U G122U | -2.79
C40A G47A G60A A75U C86U C97U C123A U132A | -1.57
C40A G48C A121C U129G | -0.25

Variant | polymerase ribozyme fitness (log ratio)
C40A G48C G61A | -0.933
C40A G52A G60A U81C A95U | -3.45
C40A G57C U81G C82G C97A A111U | -6.79
C40A G58C C72G U78G C79A | -5.64
C40A G61A C73U C88U G113U | -6.64
C40A G63A | -2.68
C40A G63A G128U | -4.66
C40A G63U | -3.37
C40A G63U C79A U130G | -4.83
C40A G63U C104A G120A U130G | -5.07
C40A G69C A105G | -6.71
C40A G71A G113A | -3.05
C40A G71U G117C G120C | -5.63
C40A G71U U131A | -2.31
C40A U55A G69C C73A A84C G120A | -1.3
C40A U59A | -1.29
C40A U59A G60A | -0.777
C40A U96G | -1.47
C40A U106A C124A | 1.38
C40A U106A G113A | -3.55
C40A U133G | -1.45

Variant | polymerase ribozyme fitness (log ratio)
C40G A41U G45A A91U | -4.47
C40G A41U G45U | -5.41
C40G A43G C114U | -4.36
C40G A46C G48U C73G C124G | -5.04
C40G A50U G63C | -2.25
C40G A91C C98U | -5.6
C40G C49A C64U A119U U126A | -3.13
C40G C49U | -2.95
C40G C49U A84U | -2.42
C40G C53A C123G | 0.48
C40G C53G G61C C104A G113A | -4.09
C40G C53U | -0.175
C40G C53U G127C | -1.33
C40G C56A | -1.63
C40G C56A G69C C115G | -6.15
C40G C56G C124G G127U | -0.222
C40G C56U G77A | -0.862
C40G C62U C72A A83G | -3.49
C40G C64U U81A | -2.3
C40G C72G C73A U78G | -4.57
C40G C79U C101U G113U | -4.09

Variant | polymerase ribozyme fitness (log ratio)
C40G C82U U106A | -1.73
C40G C102U U116G C124U | -4.94
C40G C114G | -4.17
C40G C115U | -2.07
C40G G44A C98U | -5.49
C40G G44C C72A U78G C94G A121C G128U | -6.15
C40G G48U C82A | -2.43
C40G G51A C56A C72A A121U | -3.83
C40G G57A A84C U112A G122A | -3.59
C40G G57U | -1.36
C40G G58C G60U C101U U126C | -2.69
C40G G61C A118U | -1.55
C40G G63A U92G | -3.61
C40G G63U G120A | -0.497
C40G G69A C79U | -2.89
C40G G71A U125A | -2.35
C40G G77A C97U | -4.09
C40G G77U C101G U112A | -1.23
C40G G110A | -1.53
C40G G110A U132A | -1.48
